This is an account of results in publication PMC10786891, “Massively parallel profiling of RNA-targeting CRISPR-Cas13d”.

As a reminder, the Kd is the equilibrium constant for the complex coming apart. A high value points to weaker binding.

The chains are these.
B1: target 1 insG 3' of 9,insA 3' of 6 (mixed)
RNA 1: CACCCGUGCAAAAAUGCAGGGGUCUAAAACUGAGCGGAUAACCUCUCUAUGG
RNA 2: GGGAAUGGAUCCACAUCUACGAAUUCGUACCAUAGAGAGGUUAGUCCAGCUCACCGAGAUCGGAAGAGCACACGU
B2: target 1 del3,del11 (mixed)
RNA 1: CACCCGUGCAAAAAUGCAGGGGUCUAAAACUGAGCGGAUAACCUCUCUAUGG
RNA 2: GGGAAUGGAUCCACAUCUACGAAUUCGUACCAUAGAGAGGUAUCCGCCACCGAGAUCGGAAGAGCACACGU
B3: target 1 C2U,A14C (mixed)
RNA 1: CACCCGUGCAAAAAUGCAGGGGUCUAAAACUGAGCGGAUAACCUCUCUAUGG
RNA 2: GGGAAUGGAUCCACAUCUACGAAUUCGUACCAUAGAGCGGUUAUCCGCUUACCGAGAUCGGAAGAGCACACGU
B4: target 1 A14G (mixed)
RNA 1: CACCCGUGCAAAAAUGCAGGGGUCUAAAACUGAGCGGAUAACCUCUCUAUGG
RNA 2: GGGAAUGGAUCCACAUCUACGAAUUCGUACCAUAGAGGGGUUAUCCGCUCACCGAGAUCGGAAGAGCACACGU
B5: target 2 MT 5'PFS GCC 3'PFS CUA (mixed)
RNA 1: CACCCGUGCAAAAUUGCAGGGGUCUAAAACCUUCUCCAAAUUGUUUCAUCCU
RNA 2: GGGAAUGGAUCCACAUCUACGAAUUCGCCAGGAUGAAACAAUUUGGAGAAGCUAAGAUCGGAAGAGCACACGU
B6: target 2 MT 5'PFS AUG 3'PFS AUC (mixed)
RNA 1: CACCCGUGCAAAAUUGCAGGGGUCUAAAACCUUCUCCAAAUUGUUUCAUCCU
RNA 2: GGGAAUGGAUCCACAUCUACGAAUUCAUGAGGAUGAAACAAUUUGGAGAAGAUCAGAUCGGAAGAGCACACGU
B7: target 2 MT 5'PFS GGA 3'PFS CAG (mixed)
RNA 1: CACCCGUGCAAAAUUGCAGGGGUCUAAAACCUUCUCCAAAUUGUUUCAUCCU
RNA 2: GGGAAUGGAUCCACAUCUACGAAUUCGGAAGGAUGAAACAAUUUGGAGAAGCAGAGAUCGGAAGAGCACACGU
B8: target 2 MT 5'PFS GCC 3'PFS CUC (mixed)
RNA 1: CACCCGUGCAAAAUUGCAGGGGUCUAAAACCUUCUCCAAAUUGUUUCAUCCU
RNA 2: GGGAAUGGAUCCACAUCUACGAAUUCGCCAGGAUGAAACAAUUUGGAGAAGCUCAGAUCGGAAGAGCACACGU
B9: target 2 MT 5'PFS UAG 3'PFS UCU (mixed)
RNA 1: CACCCGUGCAAAAUUGCAGGGGUCUAAAACCUUCUCCAAAUUGUUUCAUCCU
RNA 2: GGGAAUGGAUCCACAUCUACGAAUUCUAGAGGAUGAAACAAUUUGGAGAAGUCUAGAUCGGAAGAGCACACGU
B10: target 2 MT 5'PFS AUG 3'PFS AUA (mixed)
RNA 1: CACCCGUGCAAAAUUGCAGGGGUCUAAAACCUUCUCCAAAUUGUUUCAUCCU
RNA 2: GGGAAUGGAUCCACAUCUACGAAUUCAUGAGGAUGAAACAAUUUGGAGAAGAUAAGAUCGGAAGAGCACACGU
B11: target 2 MT 5'PFS AAC 3'PFS UCU (mixed)
RNA 1: CACCCGUGCAAAAUUGCAGGGGUCUAAAACCUUCUCCAAAUUGUUUCAUCCU
RNA 2: GGGAAUGGAUCCACAUCUACGAAUUCAACAGGAUGAAACAAUUUGGAGAAGUCUAGAUCGGAAGAGCACACGU
B12: target 2 MT 5'PFS GGG 3'PFS CAU (mixed)
RNA 1: CACCCGUGCAAAAUUGCAGGGGUCUAAAACCUUCUCCAAAUUGUUUCAUCCU
RNA 2: GGGAAUGGAUCCACAUCUACGAAUUCGGGAGGAUGAAACAAUUUGGAGAAGCAUAGAUCGGAAGAGCACACGU
B13: target 2 MT 5'PFS GAU 3'PFS CUC (mixed)
RNA 1: CACCCGUGCAAAAUUGCAGGGGUCUAAAACCUUCUCCAAAUUGUUUCAUCCU
RNA 2: GGGAAUGGAUCCACAUCUACGAAUUCGAUAGGAUGAAACAAUUUGGAGAAGCUCAGAUCGGAAGAGCACACGU
B14: target 2 MT 5'PFS GGG 3'PFS CAG (mixed)
RNA 1: CACCCGUGCAAAAUUGCAGGGGUCUAAAACCUUCUCCAAAUUGUUUCAUCCU
RNA 2: GGGAAUGGAUCCACAUCUACGAAUUCGGGAGGAUGAAACAAUUUGGAGAAGCAGAGAUCGGAAGAGCACACGU
B15: target 2 MT 5'PFS GGG 3'PFS CAA (mixed)
RNA 1: CACCCGUGCAAAAUUGCAGGGGUCUAAAACCUUCUCCAAAUUGUUUCAUCCU
RNA 2: GGGAAUGGAUCCACAUCUACGAAUUCGGGAGGAUGAAACAAUUUGGAGAAGCAAAGAUCGGAAGAGCACACGU
B16: target 2 MT 5'PFS GCC 3'PFS CUU (mixed)
RNA 1: CACCCGUGCAAAAUUGCAGGGGUCUAAAACCUUCUCCAAAUUGUUUCAUCCU
RNA 2: GGGAAUGGAUCCACAUCUACGAAUUCGCCAGGAUGAAACAAUUUGGAGAAGCUUAGAUCGGAAGAGCACACGU
B17: target 2 MT 5'PFS GGG 3'PFS CAC (mixed)
RNA 1: CACCCGUGCAAAAUUGCAGGGGUCUAAAACCUUCUCCAAAUUGUUUCAUCCU
RNA 2: GGGAAUGGAUCCACAUCUACGAAUUCGGGAGGAUGAAACAAUUUGGAGAAGCACAGAUCGGAAGAGCACACGU
B18: target 2 MT 5'PFS AAC 3'PFS UCA (mixed)
RNA 1: CACCCGUGCAAAAUUGCAGGGGUCUAAAACCUUCUCCAAAUUGUUUCAUCCU
RNA 2: GGGAAUGGAUCCACAUCUACGAAUUCAACAGGAUGAAACAAUUUGGAGAAGUCAAGAUCGGAAGAGCACACGU
B19: target 2 MT 5'PFS GGA 3'PFS CAU (mixed)
RNA 1: CACCCGUGCAAAAUUGCAGGGGUCUAAAACCUUCUCCAAAUUGUUUCAUCCU
RNA 2: GGGAAUGGAUCCACAUCUACGAAUUCGGAAGGAUGAAACAAUUUGGAGAAGCAUAGAUCGGAAGAGCACACGU
B20: target 2 MT 5'PFS GGA 3'PFS CAC (mixed)
RNA 1: CACCCGUGCAAAAUUGCAGGGGUCUAAAACCUUCUCCAAAUUGUUUCAUCCU
RNA 2: GGGAAUGGAUCCACAUCUACGAAUUCGGAAGGAUGAAACAAUUUGGAGAAGCACAGAUCGGAAGAGCACACGU
B21: target 2 MT 5'PFS GCC 3'PFS CUG (mixed)
RNA 1: CACCCGUGCAAAAUUGCAGGGGUCUAAAACCUUCUCCAAAUUGUUUCAUCCU
RNA 2: GGGAAUGGAUCCACAUCUACGAAUUCGCCAGGAUGAAACAAUUUGGAGAAGCUGAGAUCGGAAGAGCACACGU
B22: target 2 MT 5'PFS GGA 3'PFS CAA (mixed)
RNA 1: CACCCGUGCAAAAUUGCAGGGGUCUAAAACCUUCUCCAAAUUGUUUCAUCCU
RNA 2: GGGAAUGGAUCCACAUCUACGAAUUCGGAAGGAUGAAACAAUUUGGAGAAGCAAAGAUCGGAAGAGCACACGU
B23: target 2 MT 5'PFS UCG 3'PFS CCA (mixed)
RNA 1: CACCCGUGCAAAAUUGCAGGGGUCUAAAACCUUCUCCAAAUUGUUUCAUCCU
RNA 2: GGGAAUGGAUCCACAUCUACGAAUUCUCGAGGAUGAAACAAUUUGGAGAAGCCAAGAUCGGAAGAGCACACGU
B24: target 2 MT 5'PFS GAU 3'PFS CUA (mixed)
RNA 1: CACCCGUGCAAAAUUGCAGGGGUCUAAAACCUUCUCCAAAUUGUUUCAUCCU
RNA 2: GGGAAUGGAUCCACAUCUACGAAUUCGAUAGGAUGAAACAAUUUGGAGAAGCUAAGAUCGGAAGAGCACACGU
B25: target 2 MT 5'PFS GAU 3'PFS CUG (mixed)
RNA 1: CACCCGUGCAAAAUUGCAGGGGUCUAAAACCUUCUCCAAAUUGUUUCAUCCU
RNA 2: GGGAAUGGAUCCACAUCUACGAAUUCGAUAGGAUGAAACAAUUUGGAGAAGCUGAGAUCGGAAGAGCACACGU
B26: target 2 MT 5'PFS GAU 3'PFS CUU (mixed)
RNA 1: CACCCGUGCAAAAUUGCAGGGGUCUAAAACCUUCUCCAAAUUGUUUCAUCCU
RNA 2: GGGAAUGGAUCCACAUCUACGAAUUCGAUAGGAUGAAACAAUUUGGAGAAGCUUAGAUCGGAAGAGCACACGU
B27: target 2 MT 5'PFS UAG 3'PFS UCA (mixed)
RNA 1: CACCCGUGCAAAAUUGCAGGGGUCUAAAACCUUCUCCAAAUUGUUUCAUCCU
RNA 2: GGGAAUGGAUCCACAUCUACGAAUUCUAGAGGAUGAAACAAUUUGGAGAAGUCAAGAUCGGAAGAGCACACGU

This data set deals with T1, EsCas13d, nuclease-dead (Eubacterium siraeum, UniProt B0MS50, R295A;H300A;R849A;H854A).
T1 sequence: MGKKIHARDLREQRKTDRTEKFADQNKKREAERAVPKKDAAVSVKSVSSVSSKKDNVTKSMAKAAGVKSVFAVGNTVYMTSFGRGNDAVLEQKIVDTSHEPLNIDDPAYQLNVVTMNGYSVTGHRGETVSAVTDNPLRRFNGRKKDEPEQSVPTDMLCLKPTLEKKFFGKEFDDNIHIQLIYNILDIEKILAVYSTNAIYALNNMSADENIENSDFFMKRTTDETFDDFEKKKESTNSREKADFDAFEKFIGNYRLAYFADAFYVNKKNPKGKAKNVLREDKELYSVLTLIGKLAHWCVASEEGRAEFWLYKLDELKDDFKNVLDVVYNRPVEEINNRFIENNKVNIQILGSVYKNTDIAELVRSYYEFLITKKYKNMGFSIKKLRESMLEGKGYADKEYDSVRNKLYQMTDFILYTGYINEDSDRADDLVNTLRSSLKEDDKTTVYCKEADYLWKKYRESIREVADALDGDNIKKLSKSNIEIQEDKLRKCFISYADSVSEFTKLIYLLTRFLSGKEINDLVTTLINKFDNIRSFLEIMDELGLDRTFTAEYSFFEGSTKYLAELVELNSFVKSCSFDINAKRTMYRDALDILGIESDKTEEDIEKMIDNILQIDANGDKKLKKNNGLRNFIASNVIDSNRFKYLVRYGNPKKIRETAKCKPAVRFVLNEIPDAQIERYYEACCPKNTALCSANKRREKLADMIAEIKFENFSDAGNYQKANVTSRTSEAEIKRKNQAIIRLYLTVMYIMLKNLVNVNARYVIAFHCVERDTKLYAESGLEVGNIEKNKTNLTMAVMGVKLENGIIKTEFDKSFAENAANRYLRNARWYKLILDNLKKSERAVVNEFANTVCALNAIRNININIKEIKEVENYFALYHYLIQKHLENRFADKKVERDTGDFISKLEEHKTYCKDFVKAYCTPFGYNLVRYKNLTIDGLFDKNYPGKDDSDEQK
Nature of the data set: crRNA (strand 1, pre-loaded); Mg2+; 40 mM Tris-HCl pH 7.5, 150 mM NaCl, 6 mM MgCl2, 1 mM DTT, 0.1% Tween-20, 0.2 mg/ml BSA; 25 C; 10 min per concentration, then washed. The settings on record: tags: His6-TwinStrep-SUMO cleaved; N-terminal SNAP kept (SNAP-Surface 488); label: 3' end held by stalled T7 RNA polymerase.
Consider B1, for which binding was put at a Kd of 13.4 ± 0.7 nM. Then B2, with 66 ± 16 nM. As for B3, the Kd was determined as 80 ± 13 nM. As to B4, the dissociation constant Kd amounted to 13.9 ± 0.7 nM. B5 gave a dissociation constant (Kd) of 11.7 ± 2.4 nM. B6 came in with a dissociation constant (Kd) of 9.3 ± 1.6 nM. Then B7, with 11.5 ± 1.5 nM. B8: the Kd stood at 18.3 ± 2.3 nM. This Kd is about 1.6-fold higher than that of the molecule before. Then B9, with 38 ± 10 nM; and B10, with 9 ± 1.1 nM; and B11, with 14 ± 4 nM. Consider B12, for which the dissociation constant (Kd) was determined as 8 ± 0.8 nM.

In the case of B13, the Kd worked out at 17.8 ± 2.4 nM. Compared with the last molecule, the Kd is about 2.2-fold higher.

B14: the dissociation constant (Kd) amounted to 9 ± 0.8 nM. Molecule B15 gave a Kd of 4.9 ± 0.5 nM. With B16, the dissociation constant (Kd) amounted to 10.5 ± 1.9 nM. B17 registered a Kd of 9.4 ± 1 nM. Turning to B18, the dissociation constant Kd stood at 9.3 ± 2.5 nM.

Molecule B19 registered a Kd of 9.1 ± 1.1 nM. Then B20, with 9.4 ± 1 nM. Then B21, with 12.7 ± 2.1 nM; and B22, with 6.7 ± 1.2 nM. In the case of B23, the dissociation constant Kd stood at 31 ± 11 nM. For the molecule B24, the affinity, expressed as Kd, was 11.9 ± 1.7 nM.

Regarding B25, the Kd was 14.9 ± 2 nM.

Regarding B26, the Kd is 22 ± 4 nM.

B27 had a dissociation constant Kd of 4.8 ± 0.7 nM.
